The results in this text go back to patent US20240270846A1 (published 2024).

Changes are numbered by the printed parent chain. Names may count otherwise.

This test concerns the target T1, CD3 epsilon homodimer protein (UniProt P07766 23-126).
T1 construct: construct not described; homodimer as printed; also called CD3 (CD3 epsilon)
Nature of the test: SPR Biacore T200, CD3 epsilon homodimer immobilized; vs unaltered GLS3000.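 Further: antibody variants flowed as analyte over CD3 epsilon homodimer amine-coupled to a CM4 chip, at 25 °C in HBS-EP+ running buffer, fitted with Biacore T200 Evaluation Software.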

T1 sequence (P07766 23-126): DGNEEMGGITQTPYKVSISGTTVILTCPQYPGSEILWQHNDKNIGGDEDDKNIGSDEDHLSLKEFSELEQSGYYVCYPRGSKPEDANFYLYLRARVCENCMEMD

B1: GLS3000 S27aI (Kabat) L chain altered form, one-arm antibody with CE115HA000 (antibody, human IgG1, kappa, L234A L235A, N297A, name in Kabat numbering)
heavy: QVQLVESGGGVVQPGRSLRLSCAASGFTFSNAWMHWVRQAPGKGLEWVAQIKAKSNNYATYYAESVKGRFTISRDDSKNSLYLQMNSLKTEDTAVYYCRYVHYGAYYGVDAWGQGTTVTVSSASTKGPSVFPLAPSSKSTSGGTAALGCLVKDYFPEPVTVSWNSGALTSGVHTFPAVLQSSGLYSLSSVVTVPSSSLGTQTYICNVNHKPSNTKVDKKVEPKSCDKTHTCPPCPAPEAAGGPSVFLFPPKPKDTLMISRTPEVTCVVVDVSHEDPEVKFNWYVDGVEVHNAKTKPREEQYASTYRVVSVLTVLHQDWLNGKEYKCKVSNKALPAPIEKTISKAKGQPREPQVYTLPPSRCELTKNQVSLSCAVKGFYPSDIAVEWESNGQPENNYKTTPPVLDSDGSFFLVSKLTVDKSRWQQGNVFSCSVMHEALHNHYTQKSLSLSPDYKDDDDK
chain: EPKSSDKTHTCPPCPAPELLGGPSVFLFPPKPKDTLMISRTPEVTCVVVDVSHEDPEVKFNWYVDGVEVHNAKTKPREEQYNSTYRVVSVLTVLHQDWLNGKEYKCKVSNKALPAPIEKTISKAKGQPREPQVCTLPPSRDELTKNQVSLWCLVKGFYPSDIAVEWESNGQPENNYKTTPPVLDSDGSFFLYSKLTVDKSRWQQGNVFSCSVMHEALHNRYTQKSLSLSP
light: DIVMTQSPLSLPVTPGEPASISCRSSQILVHSNRNTYLHWYQQKPGQAPRLLIYKVSNRFSGVPDRFSGSGSGTDFTLKISRVEAEDVGVYYCGQGTQVPYTFGQGTKLEIKRTVAAPSVFIFPPSDEQLKSGTASVVCLLNNFYPREAKVQWKVDNALQSGNSQESVTEQDSKDSTYSLSSTLTLSKADYEKHKVYACEVTHQGLSSPVTKSFNRGEC
notes: one-arm antibody
Take B1: the “KD ratio to GLS3000 (Affinity up)” value was found to be 0.87.

B2: GLS3000 S27aN (Kabat) L chain altered form, one-arm antibody with CE115HA000 (antibody, human IgG1, kappa, L234A L235A, N297A, name in Kabat numbering)
heavy: B1 heavy
chain: B1 chain
light: B1 light with I28N
notes: one-arm antibody
In the case of B2, the “KD ratio to GLS3000 (Affinity up)” value was 0.98.

B3: GLS3000 V27cS (Kabat) L chain altered form, one-arm antibody with CE115HA000 (antibody, human IgG1, kappa, L234A L235A, N297A, name in Kabat numbering)
heavy: B1 heavy
chain: B1 chain
light: B1 light with I28S, V30S
notes: one-arm antibody
In the case of B3, the “KD ratio to GLS3000 (Affinity up)” value was found to be 3.04.

B4: GLS3000 S56A (Kabat) L chain altered form, one-arm antibody with CE115HA000 (antibody, human IgG1, kappa, L234A L235A, N297A, name in Kabat numbering)
heavy: B1 heavy
chain: B1 chain
light: B1 light with I28S, S61A
notes: one-arm antibody
As to B4, the “KD ratio to GLS3000 (Affinity up)” value amounted to 1.18.

B5: GLS3000 S27eF (Kabat) L chain altered form, one-arm antibody with CE115HA000 (antibody, human IgG1, kappa, L234A L235A, N297A, name in Kabat numbering)
heavy: B1 heavy
chain: B1 chain
light: B1 light with I28S, S32F
notes: one-arm antibody
On to B5, for which the “KD ratio to GLS3000 (Affinity up)” value worked out at 1.16.

B6: GLS3000 V27cL (Kabat) L chain altered form, one-arm antibody with CE115HA000 (antibody, human IgG1, kappa, L234A L235A, N297A, name in Kabat numbering)
heavy: B1 heavy
chain: B1 chain
light: B1 light with I28S, V30L
notes: one-arm antibody
On to B6, for which the “KD ratio to GLS3000 (Affinity up)” value was found to be 0.81.

B7: GLS3000 S27eI (Kabat) L chain altered form, one-arm antibody with CE115HA000 (antibody, human IgG1, kappa, L234A L235A, N297A, name in Kabat numbering)
heavy: B1 heavy
chain: B1 chain
light: B1 light with I28S, S32I
notes: one-arm antibody
Take B7: the “KD ratio to GLS3000 (Affinity up)” value was determined as 1.05.

B8: GLS3000 S27eT (Kabat) L chain altered form, one-arm antibody with CE115HA000 (antibody, human IgG1, kappa, L234A L235A, N297A, name in Kabat numbering)
heavy: B1 heavy
chain: B1 chain
light: B1 light with I28S, S32T
notes: one-arm antibody
On to B8, for which the “KD ratio to GLS3000 (Affinity up)” value is 0.98.

B9: GLS3000 S27eK (Kabat) L chain altered form, one-arm antibody with CE115HA000 (antibody, human IgG1, kappa, L234A L235A, N297A, name in Kabat numbering)
heavy: B1 heavy
chain: B1 chain
light: B1 light with I28S, S32K
notes: one-arm antibody
With B9, the “KD ratio to GLS3000 (Affinity up)” value is 1.32.

B10: GLS3000 S27eN (Kabat) L chain altered form, one-arm antibody with CE115HA000 (antibody, human IgG1, kappa, L234A L235A, N297A, name in Kabat numbering)
heavy: B1 heavy
chain: B1 chain
light: B1 light with I28S, S32N
notes: one-arm antibody
On to B10, for which the “KD ratio to GLS3000 (Affinity up)” value worked out at 1.01.

B11: GLS3000 S27eQ (Kabat) L chain altered form, one-arm antibody with CE115HA000 (antibody, human IgG1, kappa, L234A L235A, N297A, name in Kabat numbering)
heavy: B1 heavy
chain: B1 chain
light: B1 light with I28S, S32Q
notes: one-arm antibody
As for B11, the “KD ratio to GLS3000 (Affinity up)” value stood at 1.08.

B12: GLS3000 S27eW (Kabat) L chain altered form, one-arm antibody with CE115HA000 (antibody, human IgG1, kappa, L234A L235A, N297A, name in Kabat numbering)
heavy: B1 heavy
chain: B1 chain
light: B1 light with I28S, S32W
notes: one-arm antibody
B12: the “KD ratio to GLS3000 (Affinity up)” value stood at 1.32.

B13: GLS3000 V27cD (Kabat) L chain altered form, one-arm antibody with CE115HA000 (antibody, human IgG1, kappa, L234A L235A, N297A, name in Kabat numbering)
heavy: B1 heavy
chain: B1 chain
light: B1 light with I28S, V30D
notes: one-arm antibody
For the molecule B13, the “KD ratio to GLS3000 (Affinity up)” value came out at 3.21.

B14: GLS3000 V27cY (Kabat) L chain altered form, one-arm antibody with CE115HA000 (antibody, human IgG1, kappa, L234A L235A, N297A, name in Kabat numbering)
heavy: B1 heavy
chain: B1 chain
light: B1 light with I28S, V30Y
notes: one-arm antibody
Consider B14, for which the “KD ratio to GLS3000 (Affinity up)” value stood at 1.25.

B15: GLS3000 S27eR (Kabat) L chain altered form, one-arm antibody with CE115HA000 (antibody, human IgG1, kappa, L234A L235A, N297A, name in Kabat numbering)
heavy: B1 heavy
chain: B1 chain
light: B1 light with I28S, S32R
notes: one-arm antibody
With B15, the “KD ratio to GLS3000 (Affinity up)” value was determined as 1.35.

B16: GLS3000 S27eA (Kabat) L chain altered form, one-arm antibody with CE115HA000 (antibody, human IgG1, kappa, L234A L235A, N297A, name in Kabat numbering)
heavy: B1 heavy
chain: B1 chain
light: B1 light with I28S, S32A
notes: one-arm antibody
For B16, the “KD ratio to GLS3000 (Affinity up)” value is 1.01.

B17: GLS3000 S27eL (Kabat) L chain altered form, one-arm antibody with CE115HA000 (antibody, human IgG1, kappa, L234A L235A, N297A, name in Kabat numbering)
heavy: B1 heavy
chain: B1 chain
light: B1 light with I28S, S32L
notes: one-arm antibody
As to B17, the “KD ratio to GLS3000 (Affinity up)” value was 1.06.

B18: GLS3000 V27cP (Kabat) L chain altered form, one-arm antibody with CE115HA000 (antibody, human IgG1, kappa, L234A L235A, N297A, name in Kabat numbering)
heavy: B1 heavy
chain: B1 chain
light: B1 light with I28S, V30P
notes: one-arm antibody
Consider B18, for which the “KD ratio to GLS3000 (Affinity up)” value is 3.71.

B19: GLS3000 Y32A (Kabat) L chain altered form, one-arm antibody with CE115HA000 (antibody, human IgG1, kappa, L234A L235A, N297A, name in Kabat numbering)
heavy: B1 heavy
chain: B1 chain
light: B1 light with I28S, Y37A
notes: one-arm antibody
B19: the “KD ratio to GLS3000 (Affinity up)” value came to 66.8.

B20: GLS3000 V27cI (Kabat) L chain altered form, one-arm antibody with CE115HA000 (antibody, human IgG1, kappa, L234A L235A, N297A, name in Kabat numbering)
heavy: B1 heavy
chain: B1 chain
light: B1 light with I28S, V30I
notes: one-arm antibody
For the molecule B20, the “KD ratio to GLS3000 (Affinity up)” value was 1.03.

B21: GLS3000 S27eD (Kabat) L chain altered form, one-arm antibody with CE115HA000 (antibody, human IgG1, kappa, L234A L235A, N297A, name in Kabat numbering)
heavy: B1 heavy
chain: B1 chain
light: B1 light with I28S, S32D
notes: one-arm antibody
Turning to B21, the “KD ratio to GLS3000 (Affinity up)” value was 1.23.

B22: GLS3000 S27eM (Kabat) L chain altered form, one-arm antibody with CE115HA000 (antibody, human IgG1, kappa, L234A L235A, N297A, name in Kabat numbering)
heavy: B1 heavy
chain: B1 chain
light: B1 light with I28S, S32M
notes: one-arm antibody
With B22, the “KD ratio to GLS3000 (Affinity up)” value was 1.11.

B23: GLS3000 V27cE (Kabat) L chain altered form, one-arm antibody with CE115HA000 (antibody, human IgG1, kappa, L234A L235A, N297A, name in Kabat numbering)
heavy: B1 heavy
chain: B1 chain
light: B1 light with I28S, V30E
notes: one-arm antibody
Regarding B23, the “KD ratio to GLS3000 (Affinity up)” value was determined as 1.1.

B24: GLS3000 S27eP (Kabat) L chain altered form, one-arm antibody with CE115HA000 (antibody, human IgG1, kappa, L234A L235A, N297A, name in Kabat numbering)
heavy: B1 heavy
chain: B1 chain
light: B1 light with I28S, S32P
notes: one-arm antibody
B24: the “KD ratio to GLS3000 (Affinity up)” value turned out to be 1.06.

B25: GLS3000 S27aP (Kabat) L chain altered form, one-arm antibody with CE115HA000 (antibody, human IgG1, kappa, L234A L235A, N297A, name in Kabat numbering)
heavy: B1 heavy
chain: B1 chain
light: B1 light with I28P
notes: one-arm antibody
Consider B25, for which the “KD ratio to GLS3000 (Affinity up)” value came out at 1.01.

B26: GLS3000 S27aY (Kabat) L chain altered form, one-arm antibody with CE115HA000 (antibody, human IgG1, kappa, L234A L235A, N297A, name in Kabat numbering)
heavy: B1 heavy
chain: B1 chain
light: B1 light with I28Y
notes: one-arm antibody
For the molecule B26, the “KD ratio to GLS3000 (Affinity up)” value turned out to be 0.93.

B27: GLS3000 S27eY (Kabat) L chain altered form, one-arm antibody with CE115HA000 (antibody, human IgG1, kappa, L234A L235A, N297A, name in Kabat numbering)
heavy: B1 heavy
chain: B1 chain
light: B1 light with I28S, S32Y
notes: one-arm antibody
For B27, the “KD ratio to GLS3000 (Affinity up)” value came to 1.1.

B28: GLS3000 S27eV (Kabat) L chain altered form, one-arm antibody with CE115HA000 (antibody, human IgG1, kappa, L234A L235A, N297A, name in Kabat numbering)
heavy: B1 heavy
chain: B1 chain
light: B1 light with I28S, S32V
notes: one-arm antibody
As to B28, the “KD ratio to GLS3000 (Affinity up)” value was 0.95.

B29: GLS3000 S27eE (Kabat) L chain altered form, one-arm antibody with CE115HA000 (antibody, human IgG1, kappa, L234A L235A, N297A, name in Kabat numbering)
heavy: B1 heavy
chain: B1 chain
light: B1 light with I28S, S32E
notes: one-arm antibody
As to B29, the “KD ratio to GLS3000 (Affinity up)” value was found to be 1.04.

B30: GLS3000 S27eH (Kabat) L chain altered form, one-arm antibody with CE115HA000 (antibody, human IgG1, kappa, L234A L235A, N297A, name in Kabat numbering)
heavy: B1 heavy
chain: B1 chain
light: B1 light with I28S, S32H
notes: one-arm antibody
On to B30, for which the “KD ratio to GLS3000 (Affinity up)” value is 1.09.

B31: GLS3000 S52A (Kabat) L chain altered form, one-arm antibody with CE115HA000 (antibody, human IgG1, kappa, L234A L235A, N297A, name in Kabat numbering)
heavy: B1 heavy
chain: B1 chain
light: B1 light with I28S, S57A
notes: one-arm antibody
In the case of B31, the “KD ratio to GLS3000 (Affinity up)” value is 0.9.

B32: GLS3000 S27eG (Kabat) L chain altered form, one-arm antibody with CE115HA000 (antibody, human IgG1, kappa, L234A L235A, N297A, name in Kabat numbering)
heavy: B1 heavy
chain: B1 chain
light: B1 light with I28S, S32G
notes: one-arm antibody
Turning to B32, the “KD ratio to GLS3000 (Affinity up)” value was determined as 1.03.
